From patent US20100279937A1, “Method of Inhibiting Angiogenesis, Tumorigenesis and Cathepsin Activity” (priority 2006, published 2010)

What was measured:
U87MG cells [1] = experiment: U87MG growth in semi-solid (soft) agar; assay type: cell-based, human; settings: Alamar Blue
Description: […] Approximately 15,000 cells±treatment were resuspended in 150 μl medium containing 0.3% agar, and seeded onto a well of a 24-well plate previously layered with 250 μl 0.6% agar. The solidified cell layer was covered with 50 μl DME±treatment which was replaced every three days over a 21 day period. Phase contrast images (6 fields/well) were captured using a digital video camera (Olympus U-CMT) and analyzed with Northern Eclipse v.5.0 software. Color images were transformed to grey scale, thresholded, and then converted to binary images. Number and area of colonies per field were calculated. In order to measure cell viability, at the end of the experiment, 40 μl alamar blue was added to each well and fluorescence readings were performed every 10 min for a period of 180 min. Experiments were repeated 2-3 times in triplicates.

[2] = tested on: human brain endothelial cells (HBEC); settings: disclosed in copending PCT/CA2006/000250; cited from earlier work
U87MG cells [3] = settings: disclosed in copending PCT/CA2006/000250; cited from earlier work
U87MG cells on CAM = experiment: Experimental glioma assay: U87MG tumors on chick chorioallantoic membrane (CAM); assay type: in vivo, chicken (Gallus gallus)
Description: Fertilized chicken (Gallus gallus) eggs were obtained from the Canadian Food Inspection Agency and placed into an egg incubator at 37° C. and 67-70% humidity (day 0). At day 3, windows were cut in the egg shell and covered with surgical tape (Durapore,) until day 10. Then, a sterile Nunc Thermanox (Nunc Inc., Naperville, Ill.) plastic ring was placed onto the CAM, the delimited surface gently lacerated with a scalpel blade and a pellet of 10^6 U87MG cells deposited into the center of the ring. […] Digital photos were taken using a Canon 40D camera. At day 17, tumors were carefully removed from the CAM and weighted.

[4] = tested on: human brain endothelial cells (HBEC); experiment: Capillary-like tube (CLT) formation by HBEC on Matrigel (in vitro angiogenesis); assay type: cell-based; settings: 20 nM
Description: Human brain endothelial cells (HBEC) were obtained from small intracortical microvessels and capillaries (20-112 μm) harvested from temporal cortex from patients treated surgically for idiopathic epilepsy. Tissues were obtained with approval from the Institutional Research Ethics Committee. HBEC were separated from smooth muscle cells with cloning rings and grown at 37° C. in HBEC media containing Earle's salts, 25 mM 4-(2-hydroxyethyl)-1-piperazineethanesulfonic acid (HEPES), 4.35 g/L sodium bicarbonate, and 3 mM L-glutamine, 10% FBS, 5% human serum, 20% of media conditioned by murine melanoma cells (mouse melanoma, Cloudman S91, clone M-3, melanin-producing cells), 5 μg/ml insulin, […], 5 ng/ml selenium, and 10 μg/ml endothelial cell growth supplement. HBEC cultures were routinely characterized morphologically and biochemically.
(§1) In vitro angiogenesis was assessed by endothelial tube formation in growth factor reduced Matrigel™ (BD Bioscience, Bedford, Mass.). 24-well plates were coated with 300 μl of unpolymerized Matrigel™ (5-7 mg prot/ml) and allowed to polymerize for 90 min at 37° C. HBEC (40,000 cells) were suspended in 500 μl of either DME, serum-free U87MG CM (collected as described in Cell Cultures) or growth factors (VEGF, IGF-1, bFGF) in the absence or presence of 20 nM of either full length recombinant IGFBP-1 (IBP1, produced at BRI-NRC), IGFBP-2 (IBP2, produced at BRI-NRC and purchased from R&D systems, Minneapolis), IGFBP-3 (IBP3, from R&D systems), IGFBP-4 (IBP4, produced at BRI-NRC), IGFBP-5 (IBP5, produced at BRI-NRC and purchased from R&D systems) and IGFBP-6 (IBP6, from R&D systems) or the C-terminal protein fragments of IGFP-1 (CIBP1), IGFBP-2 (CIBP2), IGFBP-4 (CIBP4), IGFBP-5 (CIBP5) and IGFBP-6 (CIBP6), all produced at BRI-NRC). The ability of a synthetic membrane permeable cathepsin B inhibitor (CA074-ME, EMD Biosciences, Canada) to inhibit angiogenes and cathepsin B activity was also studied. CLT formation was analyzed after 24 h using an Olympus 1×50 microscope. Phase contrast images were captured with a digital video camera (Olympus U-CMT) and analyzed using Northern Eclipse v.5.0 software. Experiments were repeated three times. In order to determine the levels of cathepsin B activity in each experimental condition, at the end of the experiment, 6 μl of 26× Magic Red™ Cathepsin B reagent (Immunochemistry Technologies, LLC) were added to all the wells and maintained at 37° C. in dark for two hours. Cells were washed twice with HBSS and intracellular fluorescence quantification (530/25 nm excitation and 645/40 nm emission) was performed using a cytofluorimeter plate reader (Bio-Tek FL600).

[5] = tested on: human brain endothelial cells (HBEC); experiment: Confocal microscopy of AF647-CIBP-4 in HBEC; assay type: cell-based; settings: 100 nM AF647 conjugate, 90 min
Description: 80 μl of 1 mM Alexa Fluor 647-NHS in DMSO was added to 0.4 ml of recombinant CIBP-4 (0.2 mg/ml) in 100 mM carbonate pH 8.4, and sample was incubated overnight at room temperature. The reaction was stopped with 150 μl of 200 mM ethanolamine pH 8.0. To remove free dye, sample was diluted with 4.5 ml of water and loaded onto 1 ml Co^+2-Talon Metal Affinity column equilibrated with PBS. The column was exhaustively washed with PBS and CIBP-4 eluted with 2 ml of 1 M imidazole in PBS. To remove imidazole from AF647-CIBP-4 conjugate, the sample was concentrated to approximately 200 μl on Biomax (M.W. cut-off 5,000), diluted to original volume with PBS and concentrated again. That process of concentration/dilution was repeated three times. Final volume 0.5 ml (0.14 mg/ml). Recovery 86%.
HBEC (100,000 cell/well in a 24-well format plate) and U87MG (50,000) were respectively seeded on human fibronectin- (40 μg/ml) or poly-L-lysine-coated cover slips (Bellco Biotechnology) in 400 μl HBEC/U87MG media and grown until reached 80% confluence. Cells were then washed twice with DME and incubated in DME for 30 min at 37° C. […] Confocal images of […] were sequentially obtained using 488, 647 and 540-590 nm excitation laser lines to detect DiOC5(3) (510-525 nm emission) and Alexa 647 (670-810 nm emission) and Magic Red™ Cathepsin B (>610 nm) fluorescence.

cathepsin B = target: T1, cathepsin B (Homo sapiens, UniProt P07858); experiment: Intracellular cathepsin B activity in HBEC seeded on Matrigel (Magic Red); assay type: cell-based; settings: 20 nM
T1 construct: Levels of cathepsin B activity were also measured in U87MG CM alone or pre-incubated; endogenous in cells; host or cells: U87MG (ATCC), 3-day serum-free conditioned medium
Description: as §1
To determine the ability of these angiogenic factors to stimulate cathepsin B activity in HBEC, a membrane permeable cathepsin B target sequence peptide (Arginine-Arginine) linked to an amide substituted fluorophore, cresyl violet (Magic Red™, Immunochemistry Technologies, LLC) was used. Following enzyme cleavage at the arginine amide linkage site, the cresyl violet fluorophore generates red fluorescence when excited at 550-590 nm.

CCCC(=O)Nc1ncnc2c1ncn2[C@@H]1O[C@@H]2COP(=O)(O)O[C@H]2[C@H]1OC(=O)CCC [dB-cAMP, dybutyril cAMP, reference compound]
inhibition of U87MG colony formation in soft agar (efficacy) (U87MG cells [1]; 500 μg/ml dB-cAMP, positive control): ~65%

B1: CIBP4: IGFBP-4 C-terminal fragment (aas 157-258, SEQ ID No. 6) with StreptagII-octahistidine tag (protein)
chain: MLLLLLLLGLRLQLSLGIASKVNGAPREDARPVPQGSCQSELHRALERLAASQSRTHEDLYIIPIPNCDRNGNFHPKQCHPALDGQRGKCWCVDRKTGVKLPGGLEPKGELDCHQLADSFREVDPWSHPQFEKTGHHHHHHHHGGQ
modifications: StreptagII-octahistidine tag; C-terminal fragment of IGFBP-4
inhibition of angiogenic response induced by U87MG conditioned media and growth factors (bFGF, VEGF, IGF-1) [2]: can inhibit angiogenic response
reduction of U87MG colony formation in soft agar (U87MG cells [3]): able to reduce U87MG colony formation
average size of the tumors in each weight interval vs vehicle (U87MG cells on CAM; CAM): similar
increase in small size tumors (0-15 mg) vs vehicle (U87MG cells on CAM; CAM): three-fold
reduction in number of large size tumors (20-36 mg) vs vehicle (U87MG cells on CAM; CAM): 3 fold
shift of tumor weight frequency distribution towards smaller tumors vs vehicle (U87MG cells on CAM; CAM, intervals 0-15, 15-20, 20-36 mg): ~3 fold
reduction of growth of U87MG cells on CAM (tumor weight) vs vehicle (U87MG cells on CAM; CIBP4 250 ng/ml as printed, applied days 11-14, weighed day 17, p<0.005): 20-25%
inhibition of angiogenesis (CLT formation by HBEC in Matrigel) ([4]; stimuli U87MG CM, VEGF, IGF-1, bFGF, overnight): reduction in CLT formation
inhibition of U87MG colony formation in soft agar (efficacy) (U87MG cells [1]; 20 nM): ~50%
co-localization with lysosomes (Lysotracker) in HBEC [5]: Co-localization

B2: CIBP6: IGFBP-6 C-terminal fragment (aas 151-240, SEQ ID No. 10) with octahistidine tag (protein)
chain: MGELLLLLLLGLRLQLSLGIARNSAGVQDTEMGPCRRHLDSVLQQLQTEVYRGAQTLYVPNCDHRGFYRKRQCRSSQGQRRGPCWCVDRMGKSLPGSPDGNGSSSCPTGSSGSSTGHHHHHHHHG
modifications: octahistidine tag; C-terminal fragment of IGFBP-6
inhibition of U87MG colony formation in soft agar (efficacy) (U87MG cells [1]; 20 nM): ~25%

B3: IBP2: recombinant full-length IGFBP-2 (aas 1-328, SEQ ID No. 3); produced at BRI-NRC and purchased from R&D systems (protein)
chain: MLPRVGCPALPLPPPPLLPLLPLLLLLLGASGGGGGARAEVLFRCPPCTPERLAACGPPPVAPPAAVAAVAGGARMPCAELVREPGCGCCSVCARLEGEACGVYTPRCGQGLRCYPHPGSELPLQALVMGEGTCEKRRDAEYGASPEQVADNGDDHSEGGLVENHVDSTMNMLGGGGSAGRKPLKSGMKELAVFREKVTEQHRQMGKGGKHHLGLEEPKKLRPPPARTPCQQELDQVLERISTMRLPDERGPLEHLYSLHIPNCDKHGLYNLKQCKMSLNGQRGECWCVNPNTGKLIQGAPTIRGDPECHLFYNEQQEARGVHTQRMQGSGWSHPQFEKTGHHHHHHHHGGQ
modifications: human
notes: produced at BRI-NRC and purchased from R&D systems
inhibition of intracellular cathepsin B activity induced by IGF-1 (cathepsin B; IGF-1 (150 ng/ml)): completely inhibit
inhibition of intracellular cathepsin B activity induced by U87MG CM (cathepsin B; U87MG CM): did not inhibit
inhibition of intracellular cathepsin B activity induced by VEGF (cathepsin B; VEGF (20 ng/ml)): completely inhibit
inhibition of intracellular cathepsin B activity induced by bFGF (cathepsin B; bFGF (20 ng/ml)): did not inhibit
inhibition of angiogenic response induced by IGF-1 ([4]; HBEC on Matrigel, IGF-1 (150 ng/ml)): completely inhibit
inhibition of angiogenic response induced by U87MG CM ([4]; HBEC on Matrigel, U87MG CM): did not inhibit
inhibition of angiogenic response induced by VEGF ([4]; HBEC on Matrigel, VEGF (20 ng/ml)): completely inhibit
inhibition of angiogenic response induced by bFGF ([4]; HBEC on Matrigel, bFGF (20 ng/ml)): did not inhibit

B4: IGFBP-4: recombinant full-length IGFBP-4 (SEQ ID No. 5) with StreptagII-octahistidine tag (protein)
chain: MLPLCLVAALLLAAGPGPSLGDEAIHCPPCSEEKLARCRPPVGCEELVREPGCGCCATCALGLGMPCGVYTPRCGSGLRCYPPRGVEKPLHTLMHGQGVCMELAEIEAIQESLQPSDKDEGDHPNNSFSPCSAHDRRCLQKHFAKIRDRSTSGGKMKVNGAPREDARPVPQGSCQSELHRALERLAASQSRTHEDLYIIPIPNCDRNGNFHPKQCHPALDGQRGKCWCVDRKTGVKLPGGLEPKGELDCHQLADSFREVDPWSHPQFEKTGHHHHHHHHGGQ
modifications: StreptagII-octahistidine tag; human
reduction of U87MG colony formation in soft agar (U87MG cells [3]): able to reduce U87MG colony formation

B5: CIBP1: IGFBP-1 C-terminal domain (aa 170-259, SEQ ID No. 2) with octahistidine tag (protein)
chain: MGELLLLLLLGLRLQLSLGIASKKWKEPCRIELYRVVESLAKAQETSGEEISKFYLPNCNKNGFYHSRQCETSMDGEAGLCWCVYPWNGKRIPGSPEIRGDPNCQIYFNVQASSGSSTGHHHHHHHHG
modifications: octahistidine tag; C-terminal fragment of IGFBP-1
inhibition of U87MG colony formation in soft agar (efficacy) (U87MG cells [1]; 20 nM): ~25%
